The DeepSol protein solubility set

Experiment: soluble on expression in E. coli; label from the status in PepcDB or PDB records

Sequence	soluble on expression in E. coli
MGSDKIHHHHHHMLFANSLENQLQQWNEVISKQPNNPNAYIRRGMVQFQLAKIEESIDDFDTAEKLDNRIKPYLWQRGLSYYYADRFAEGAQQFEIDLTVNSQDVEETVWRYLCMARLVGVTEARNNLLTVKNDPRLIMRSVYDLFAGHCTPDNVFNIGQTEGNKGKFYSHLYLGLYYEAENNLPLAQEYIVKAADKYKLDDYMWYLAQVHKKLRGWM	not soluble
MHHHHHHSSGVDLGTENLYFQSNAMADCYLTEKKKNFIPIQPMMPDELPDWLDTQDARTQQWVKASGFVGLAGTICSIPESTGALQRVLLGVSDYEYSWDFGGLSKVLPPGAFQLNRDDFEDDEYYERALLAFGLGSYQFNAYRKRSPYLAKLFLPQAHRKRVTDWLTTIYLIRDLINTPAEDMGPSELAQAVKHVAKEFEAKVKIIESKDLETEFPAIYAVGRAGSRPPLLIDLKWGDIKAPKVTLVGKGVCFDSGGLDIKTPGGMLLMKKDMGGAAHALGLARMIMLQQLPVRLRLLIPAVENAIGSRSYRPGDVVQTRARKTIEITNTDAEGRVVLADALAEAVKEDPDLIIDFSTLTGAARIALGPNLPALFANQDSLAQALIDASLKTDDPLWRLPLFQPYRNYLKSEVADLTNSSQNRMAGAITAALFLQHFVSDQIPWAHFDIFAWNLEDLPGRPIGGEAMALRAVFHYLEQQYR	soluble
PREQIIRLHASSGTTGKPTVVGYTANDISNWADLVARSLRAAGLRKGDMIHNAYGYGLFTGGLGAHYGIERLGATVVPMSGGQTEKQVGLITDFKPTGIMVTPSYMLNILEQYHKVGMDPRESSLQVGVFGAEPWTDAMRREVEEAFDMHAVDIYGLSEIMGPGVANECVETKDGPVI	not soluble
MNDDTRARGGREGGLRAARDRLQPALLDRLTDDERARCTEPPDAQAIGGERLRAAVLRDLAWLLNTRNGEDGFVDWAAFAHAQASVLNYGMRPLVGKPMSGVERMSVEASIRDAIVRFEPRIAPDSVEVRSVLDAPGGAAGERRHNVLMFEIKGTLWSVPHPVEFVLRSALDLETGAMALQPAAGG	not soluble
MADSAQDLAFTAENFESLLNEQLGESGGLEGSVLTGTVIGVSGDFAVVDVGLKSEGRVPLKEFSRGGDDAEIKIGDTVDVFVERYEDKDGLIVLSRDKARREEAWNELEKAFNDNQRVRGLIHSRVKGGFTVDLSGAIAFLPGSQVDIRPVRDIGPLLGQPQVFQILKMDRARGNIVVSRRAVLEETRAEERSKLMETLREGEILEGVVKNITDYGAFVDLGGVDGLLHVTDISWKRINHPTEALSIGQTVKVQVIRFNAETQRISLGMKQLEADPWEGVAAKYPVGTKFVGRVTNITDYGAFVELEPGVEGLVHVSEMSWTKKNVHPGKIVSTSQEVEVMILDVDPDKRRISLGLKQTMANPWSEFLEGHPIGTEVEGEIKNITEFGLFIGLTGDIDGMIHLSDLDWNRSGDEAVKDYKKGDVVQAKVLDVDVEKERISLGVKQLGEDPYREATADLRKNQIVTCVITMVQENGIEVDVNGAIGFIRKSDLARERADQRPERFAVGEKVDAKVINMDKSNRRMTLSIKAREMDEEKQAMAEYGSADSGASLGDILGAALKQAQEKARTGDDELEHHHHHH	not soluble
MEESINQNPEAMEALISNLFGNISSLKSAYIELQSAHTPYDPEKIQAADKVVISELKNLSEMKHFYRENNPKPVCVSPQDSRLAAEIQEQQSLLKTYEVMVKKFQSEIQNKDSEITQMLQKIEEANQKRLKLEKNLKLRGMSTNQGSGGDGNLQFPDLTTELFVSTYEAAAKVVHDFSKPLINMMKAAGWDLDTAANSIEPDVVYAKRPHKEYAFESYICQRMFSGFQQKNFSVNSESATVMADDDTDTFFRQFLALKDMDPLDALDQRDYVTGGGHPRTAFYQAFLKLAKSIWILHKLAYSFDPAAKIFQVKKGSEFSDSYMESVVKNIH	soluble
MSLGSNKTIIINLNNLEHNLNLIKNKIGEKEIVATLKGDAYGHGLINIFKFLKSKNINYFGLSNIEDAKTLKKIDKNIKILMYIKVDKKEIKNLIKFELVPFVSDFEYLFLIEKECALQKNKIKVHLKIDIGMNRYGIKIDDALEIATYIQNSKFLELEGICSHLPSIENFKTTQKQIEQFLFFLETLKQKNIHPKFVHISNSGHIINYKLNPQFNMVRPGLILYGYCQSEGHHHHHH	not soluble
MGSDKIHHHHHHMDGGFMQKKVLLVGLGVMGSRIAANFASAGKLAGVYDRNVDKAKNTASMLKVGFYRDLGEAVKNSDIIVTMLYDDRSVKEVYSQMEQGVQGKVFIDMSTISPDTSIEIAKRIKEKGGKMYDAPVIGTSIAVEKKALVVLVGGDLSGYDEVRDLISATANQVVYMGDNGSGLYAKLVNNLFLGSYMASLAEAVRFGRKNGIPDSTISDVLTKYSSARSPTSDLKVPKMISEDYSVQFSIKNMLKDMEIVDRMASEKRIALPVASLALQLFRYLMDSGYGEEDIAAIYRALR	not soluble
MSLKLVTFDLDDTLWDTAPAIAGAEVTLRDWLAEHAPKLGAIPVEHLWEIRSRLVAEDPSFKHRISALRRRVLFHALEDAGYDPDEAQDLADRGFEVFLHGRHQVQIFPEVQPMLEILAKTFTLGVITNGNADVRRLGLADYFAFALCAEDLGIGKPDPAPFVEALRRAKVDASAAVHVGDHPKDDIAGAQQAGMRAIWYNPQGKAWDADRLPDAEIHNLSQLPEVLARWAEGHHHHHH	soluble
MEEELQHSHCVNCVSRRCMTRPEPGISCDLIGCPLVCGAVFHSCKADEHRLLCPFERVPCLNSDFGCPFTMARNKVAEHLEMCPASV	soluble
MLSVIGIGPGSQAMMTMEAIEALQAAEIVVGYKTYTHLVKAFTGDKQVIKTGMCREIERCQAAIELAQAGHNVALISSGDAGIYGMAGLVLELVSKQKLDVEVRLIPGMTASIAAASLLGAPLMHDFCHISLSDLLTPWPVIEKRIVAAGEADFVICFYNPRSRGREGHLARAFDLLAASKSAQTPVGVVKSAGRKKEEKWLTTLGDMDFEPVDMTSLVIVGNKTTYVQDGLMITPRGYTL	not soluble
MSLAEGNYISRIRAKIGHDPLIMINTFAVLWNEKHDAIFLEQRADIPDGWGFPGGFVEYGESPMDAIVREVKEETNLDVKVKNMFEMISSVNPHNFWGDAQQNLSLGFEIELLDGKLQVDQSETLAAEFVPINPEPKMFVPAAQANMHRILTWEDRPKPWLIDSNIKSHSEGHHHHHH	soluble
MIRQTLWSDVAAPLQNAFQTNNSGNRPVLMMLGGYTFSLASLVYQELARVNEYRWAAIERYGQRDARQYTGPGDESIELPGIAYPDWQGQRASLDELRALAAQGKPLQLIDSNGLIHGWYVIERIEERQSDHHPNGTPRRIEFTLALQRVNDDHAVEATP	not soluble
MTTVMKFGGTSVGSGERIRHVAKIVTKRKKEDDDVVVVVSAMSEVTNALVEISQQALDVRDIAKVGDFIKFIREKHYKAIEEAIKSEEIKEEVKKIIDSRIEELEKVLIGVAYLGELTPKSRDYILSFGERLSSPILSGAIRDLGEKSIALEGGEAGIITDNNFGSARVKRLEVKERLLPLLKEGIIPVVTGFIGTTEEGYITTLGRGGSDYSAALIGYGLDADIIEIWTDVSGVYTTDPRLVPTARRIPKLSYIEAMELAYFGAKVLHPRTIEPAMEKGIPILVKNTFEPESEGTLITNDMEMSDSIVKAISTIKNVALINIFGAGMVGVSGTAARIFKALGEEEVNVILISQGSSETNISLVVSEEDVDKALKALKREFGDFGKKSFLNNNLIRDVSVDKDVCVISVVGAGMRGAKGIAGKIFTAVSESGANIKMIAQGSSEVNISFVIDEKDLLNCVRKLHEKFIEKTNS	soluble
MLSKITQELLKMNNVLLMRPDDSEFMIPDDWSGLNAKGITYEQDNRVTESFLPFKSFYCSPVCTTVELISQNNCFAMGIRYLLEKKRDLRLNHFKAFSHKCETKPDVLIMTGCTVADTYSIFSRIVEENIMKTMTPIVIITGHHSEDLCSLASKLGGVKIISPTEKIAKIENAINDAFNSKPKKIRFLTDILSPQQIETMKMVAQGRSVNEISAAMNISIKTVYAHKVRAINKLGIKKKVYEALFYKALIQFN	not soluble
GSHMKNSVSVDLPGSMKVLVSKSSNADGKYDLIATVDALELSGTSDKNNGSGVLEGVKADASKVKLTISDDLGQTTLEVFKSDGSTLVSKKVTRADGTRLEYTGIKSDGSGKAKEVLKGYVLEGTLTAEKTTLVVKEGTVTLSKNISKSGEVSVELNDTDSSAATKKTAAWNSGTSTLTITVNSKKTKDLVFTSSNTITVQQYDSNGTSLEGSAVEITKLDEIKNALK	soluble
MGGGKYETQMCVIIIEDIFGKIVAKVMETILKESCQLSTLFYKLKGQISNTLIRKSVSTLINFGFVTFHLDTNNRTTYVADSDQIQHVISSPRACLIAKTLYGPAAESICVELISQGRLTVSETIRRIQATDETAVFSDIKKSFEELAAAHFLIRVPSVESEIHGCPQFVTNFDPFAISTNIMEKKEGTSTSDSTSNNRKRKADSTPEDGDAGQYWRINWIRFNGYLRDELIIDYLIGGGSKGTMTNLNVKKEETIEDPQGDRTQYITQNVAHLMFKINETRAKPMSMESITASLTDLQRLVKENGLNLAKPDIELACQILVDESDGIIRKLGESNGGIFIVDIRRAIRQICRHHCESLIREQFEGRAIRVMRLLENRHYLDEEQVEKLSMMSGKEAREMLYALVEEGYVFNKPVGRSNDFQPARTFYLYYVDLPRTIRGLVEYTCKLVRNLIVRQRHERTENKSVLDKDANVQPIIENIRSSEQLDEASKLAQIAEVEEMYLPGPDRAQLNRFRKAQATLLAAQDQSIRVLLSFKLFLASGEN	not soluble
RAIPIKQSFLLKRSGNSLNKEWKKKYVTLSSNGFLLYHPSINDYIHSTHGKEMDLLRTTVKVPGKRPPRAISAFGPSASGSAGQAEEENFEFLIVSSTGQTWHFEAASFEERDAWVQAIESQILASLQ	soluble
MSKKDVTKVVLDESDIPKQWYNILADMPNKPAPYFSSKTGKPVTLDELQAIFPMELIQQENSQERWIDIPEEVREMYRQWRPSPLYRARALEKHLGTPARIYYKYEGTNATGSHKLNTSLPQAYYNKIAGIKRLSTETGAGQWGSALSLACNHFGLECTVYMVKVSYEQKPYRRSFMKTFGAQVYASPTNLTSSGRAILEKDPDCTGSLGIAISEAVEDAATHDDTNYALGSVLNHVCLHQTIIGLEAKKQLEYLDEYPDVVFACCGGGSNFAGIAFPFLMDKFKGTKVRAVAVEPTACPTLTKGVYAYDYSDTGKIGPLAKMYTVGHDFVPAGIHAGGLRYHGVSPIVSQLYEDKLIEAKAYGQSSVFEAAVIFARTEGIVPAPESSHAIRAAIDEALLCKESGEAKVILFNLSGHGYFDMAAYDNYFSGKLSDVDYSEEEIARSMKNLPKVD	soluble
MSLNASSISSRFKDLFVTPSIVFDFDGTLAIGHGPVLAYALCVAPEGSKDFLERVRRELRRYDDGQSIYRDGYDIVAKLASELGIDDGTMSVAYGESRKLLGSDLAPVEHVRGIKDILSSLKGHARLVLATNAPENGVHDLLRQWGVADLFDQLHFVVGKPAGLISIISDLQLDGPVLAVGDIYEFDLSPAAQLGADTALVGATATISEAKVSMRGDSIADLPLLAWVSSRVSSEGHHHHHH	soluble
MSLKTSKTSTVVLIVPTTWSPFFAELVYRMQVELDRIGFKMILANSHADPDEEEEILRMASLNQVTGVITMSYSNIYNFINIGKKLNLVSIERFISEDVPLITSDNYGGGQLAAEKLITFGSKRFLLLRRKTNHYNATDKRTEGFLHIMKENNLPVDIFEASLKENYIEEFIHYLKTHFSGDVLTFDGIFGVTDEYAVIAKQVLFELNPSYLNKVNIIGFDGSKSQEKGSYQIASIRQPVEAMVKAAVKVLKKLIDGEEVPSHYSKVFDVSFVEPERLVEGHHHHHH	soluble
MKAQVEYIILPFKKRLDGFTYWQRELEPAIHPALKAYVKAENATGGVSSVMIFWEIARNTDHFCSDFKTDRDVRMFLTLYFWKYLCYFANIDFYTGQDKTEEILKGEAD	not soluble
